Source: PMC3865534 (Leukemia, 2013)

What was measured:
[1] = mouse, in vivo
[2] = system: hematopoietic progenitor cells (CFU-C) in C57BL/6 mice; experiment: CFU-C mobilization in C57BL/6 mice; format: in vivo
Method: (§1) POL5551 (Polyphor Ltd, Allschwil, Switzerland) was suspended in saline and either injected as bolus intraperitoneally (i.p.) or intravenously (i.v.) (0.5–100 μg/g body weight) or filled into continuous-release osmotic minipumps (model 2001, Alzet, Palo Alto, CA, USA), which were implanted under general anesthesia into a dorsal subcutaneous pouch. Mono-biotinylated POL5551 (Polyphor Ltd) was suspended in PBS (Life Technologies GmbH, Darmstadt, Germany) and injected i.p. rhG-CSF (Granocyte, Chugai, Frankfurt, Germany) was suspended in dH20 and diluted in saline to a final concentration of 0.5 μg/μl for i.p. injection. Mice received G-CSF injections every 12 h at a dose of 100 μg/kg for a total of nine doses i.p., referred to as ‘standard regimen' throughout the manuscript. Subsequent blood withdrawal and/or administration of POL5551 were performed directly after the last G-CSF injection on day 5.
(§2) For enumeration of CFU-C, aliquots of cells were incubated in duplicate in commercially available growth-factor-supplemented methyl cellulose medium for mouse CFU-C (Stem Cell Technologies, Vancouver, BC, USA or Cell Systems) as described.[23], [32] CFU-C (BFU-E, CFU-GM and CFU-GEMM) were enumerated after 6–8 days.

[3] = system: hematopoietic progenitor cells (CFU-C); experiment: Co-mobilization with Cyclophosphamide (CY); format: in vivo, mouse; details: 5 mg/kg i.p. on day 8 after CY 200 mg/kg i.p.
Method: as §1, §2
(§3) Circulating CFU-Cs were enumerated at the indicated time points (mean±s.e.m., n=6–8 mice). […]

[4] = system: human CXCR4; experiment: Receptor binding: competition with CXCR4 antibody clones 12G5/1D9 on Ao.o1_hCXCR4 cells; details: 1 μM, concurrent incubation with antibody, 4 °C, 30 min, PBS/BSA 0.5%, flow cytometry, n=3
Text: (§4) (a, b) Analysis of the binding properties of POL5551 to CXCR4. […] CXCR4 Ab without agonist/antagonists (untreated) or isotypic control Ab (isotype) were used as positive and negative controls.
CXCR4 Ab without agonist/antagonists (untreated) or isotypic control Ab (isotype) were used as positive and negative controls.

[5] = system: hematopoietic progenitor cells (CFU-C); experiment: Co-mobilization with G-CSF; format: in vivo, mouse; details: Plerixafor 5 or 10 mg/kg i.p. at end of standard regimen of G-CSF, n=6–8
Method: as §1, §2, §3

[6] = system: BM cells (CFU-C) migrating towards CXCL12; experiment: Transwell migration of BM CFU-C towards CXCL12; format: cell-based, mouse; details: CXCL12 100 ng/ml, 4 h
Method: (§5) Input cells and cells from the lower chamber were plated into a colony assay; colony-forming unit culture (CFU-C) migration is expressed as the percent of migrated CFU-C of total CFU-C contained in the inoculum (input).
as §4

[7] = system: BM cells stimulated with CXCL12; experiment: F-actin polymerization assay after CXCL12 stimulation; format: cell-based, mouse; details: pretreatment with 1 μM; CXCL12 100 ng/ml, 37 °C, n=3
Text: F-actin was then stained with AlexaFluor568-conjugated phalloidin (Molecular Probes, Eugene, OR, USA) followed by flow cytometric analysis of the relative staining intensity.
as §4

[8] = system: hematopoietic progenitor cells (CFU-C) in diabetic C57BL/6 mice; experiment: CFU-C mobilization in Streptozotocin-induced diabetic mice; format: in vivo
Method: as §1, §2

[9] = system: hematopoietic progenitor cells (CFU-C) in C57BL/6 mice; details: Plerixafor in mice; cited from earlier work
Method: In this study, in vitro and in vivo properties of the novel CXCR4 antagonist POL5551 as a mobilizing agent were evaluated.

[10] = system: macrophages and osteoblasts in BM and endosteum; details: previously confirmed; cited from earlier work
Text: Using a similar immunohistochemistry approach, we examined whether the distribution of mature osteoblasts and macrophages within the BM and endosteal environment was disturbed by treatment with POL5551. […] In contrast to G-CSF (Figures 6c and d), treatmen ...

[11] = system: PB-mobilized CFU-C migrating towards CXCL12; experiment: Ex vivo migration of mobilized CFU-C towards CXCL12; format: cell-based, mouse; details: G-CSF standard regimen; n=5–8
Method: as §5

[12] = system: hematopoietic progenitor cells (CFU-C) in DBA/2 mice; experiment: CFU-C mobilization, DBA/2 relative to C57BL/6 mice; format: in vivo; details: G-CSF standard regimen
Method: as §1, §2

[13] = system: long-term repopulating HSCs; experiment: Limiting dilution competitive repopulating unit (CRU) assay; format: in vivo, mouse; details: POL5551 30 mg/kg i.p.; G-CSF standard regimen; 16 weeks, n=5–10
Method: To determine the frequency of long-term repopulating HSCs in POL5551 versus G-CSF-mobilized blood, a limiting dilution CRU assay was performed.[34] Lethally irradiated CD45.2 hosts, 5–10 per group, received i.v. grafts consisting of limiting volumes (2.5, 5.0 and 10 μl) of CD45.1 POL5551 or G-CSF-mobilized blood cells together with 2.5 × 10^5 CD45.2 BM competitor cells. After 16 weeks, multilineage contribution of the CD45.1 graft-derived leukocytes was measured using flow cytometry. Animals with evidence of mobilized blood-derived (that is, CD45.1+) Gr1+, CD11b+, B220+ and CD3+ cells (⩾0.5% for each lineage) were considered positive for donor cell engraftment. CRU (LTRC) frequency was calculated using the LCALC software (Stem Cell Technologies).
Figure 5 Mobilization of CRU by POL5551. CRU frequency in POL5551 (30 mg/kg)-mobilized blood was determined using a CRU assay and compared with the CRU frequency in G-CSF (standard regimen)-mobilized blood. […] CRU engraftment, defined as multilineage engraftment of ⩾0.5% per lineage was quantified 16 weeks after transplantation. […] The mean CRU (LTRC) frequency (b) was calculated using Poisson's statistic (LCALC software, Stem Cell Technologies) (mean±upper/lower frequency).

[14] = system: white blood cells; experiment: Mobilization of mature leukocyte subsets; format: in vivo, C57BL/6 mice; details: POL5551 4 h i.p., G-CSF standard regimen, Plerixafor 5 mg/kg i.p. 1 h
Method: (§6) Cell labeling was performed according to standard protocols using established marker panels for identification of different subsets in mouse hematopoietic tissues. Antibodies used in this study are detailed in Supplementary Methods. Subsequent acquisition and analysis were performed on a BD FACSCanto II cytometer with the FACSDiva software (BD Biosciences). Some data were further analyzed using the FlowJo software (Tree Star, Inc., Ashland, OR, USA). Cell isolation by flow sorting was performed on a BD FACS Aria II (BD Biosciences).
Figure S3: Mobilization of mature cell subsets by POL5551. A: Time-response of POL5551 mediated mobilization of WBCs. C57BL/6 mice received POL5551 (5 mg/kg) i.p. and blood was drawn at the indicated time points for blood count analysis (mean±SEM from 5 mice). B: Relative distribution of leukocytes in mobilized blood specimen. Blood was drawn before (baseline) and 4 hours after POL5551 injection i.p. (mean±SEM, n=5). […] C: Mobilization of T-, B-cells, monocytes and granulocytes. Blood composition was analyzed 4 hours after POL5551 injection (30 mg/kg, i.p. mean±SEM, n=6). […] D: Assessment of mobilized T-cell subsets.

[15] = system: c-kit+ cells; experiment: Immunophenotype of c-kit+ cells; format: in vivo, C57BL/6 mice; details: G-CSF standard regimen, after 9th dose, mean +/- SEM, n=5
Method: as §6
C57BL/6 mice were mobilized with a bolus injection of POL5551 (5 or 30 mg/kg, i.p., n=5) or standard regimen of G-CSF (n=5). Saline treated animals (n=5) served as steady-state BM and PB donors. […] Percentage of positive cells was evaluated in comparison to isotype control. Mean fluorescence intensity was analyzed among c-kit+ cells.

## c1cc(CN2CCCNCCNCCCNCC2)ccc1CN1CCCNCCNCCCNCC1 [Plerixafor]
[1]
  Toxicity limiting dose: could not be tested at doses >10 mg/kg because of its toxicity
[2]; Plerixafor 5 mg/kg i.p., n=4
  Circulating CFU-C: 1300 CFU-C/ml
[3]
  CFU-C mobilized in combination with CY: > 40 000 CFU-C per ml PB
  Synergism with CY compared with CY plus G-CSF: more pronounced than the combination of CY plus G-CSF
[4]
  Binding to N-terminus / interference with 1D9 binding: without affecting the binding of 1D9
  Binding to extracellular loops / interference with 12G5 binding: interfered with 12G5 binding
[5]
  Mobilization in combination with G-CSF: noticeably enhanced
[6]; pre-incubation with 1 μM, n=3
  Inhibition of CXCL12-induced transwell migration of ssBM CFU-C: completely blocked
[7]
  Inhibition of CXCL12-induced F-actin polymerization: did not show an inhibitory effect
[8]; Plerixafor 10 mg/kg i.p. after the ninth G-CSF dose, 1 h, n=3
  Rescue of diabetes-induced hyporesponsiveness to G-CSF: could rescue diabetes-induced hyporesponsiveness to G-CSF
[8]; Plerixafor 10 mg/kg i.p., 1 h, n=3
  CFU-C mobilization in diabetic vs healthy mice: markedly decreased (to approximately one-fourth)
[9]
  Dose at which mobilization peaks: 5 mg/kg

## O=P1(N(CCCl)CCCl)NCCCO1 (stereo not drawn) [CY, Cyclophosphamide]
[10]
  Mobilization through collapse of HSC niche cellular components: initiates collapse of HSC niche cellular components

## CXCL12: the natural ligand, the chemokine CXCL12
[6]; percent of input CFU-C, no inhibitor, n=13
  CXCL12-induced transwell migration of ssBM CFU-C: ~6%

B1: G-CSF: rhG-CSF (Granocyte, Chugai, Frankfurt, Germany) (protein, UniProt P09919 31-207, looked up)
Granulocyte …: TPLGPASSLPQSFLLKCLEQVRKIQGDGAALQEKLVSECATYKLCHPEELVLLGHSLGIPWAPLSSCPSQALQLAGCLSQLHSGLFLYQGLLQALEGISPELGPTLDTLQLDVADFATTIWQQMEELGMAPALQPTQGAMPAFASAFQRRAGGVLVASHLQSFLEVSYRVLRHLAQP
[11]
  Responsiveness of mobilized CFU-C to CXCL12: to a similar degree as was also observed for G-CSF-mobilized blood
[10]
  Mobilization through collapse of HSC niche cellular components: initiates collapse of HSC niche cellular components
[2]; G-CSF standard regimen (100 μg/kg every 12 h, nine doses i.p.), n=58
  Circulating CFU-C: 3800 CFU-C/ml
[12]
  Mobilization in DBA/2 relative to C57BL/6 mice: at least six times more CFU-C in DBA/2 than in C57BL/6 mice
[13]
  CRU frequency in mobilized blood: 34 CRU/ml
[8]; G-CSF standard regimen, n=6
  CFU-C mobilization in diabetic vs healthy mice: markedly decreased (to approximately one-fourth)
[14]
  Frequency of neutrophils in mobilized vs non mobilized blood: most prominently in G-CSF-mobilized
[15]
  CD26, RMFI of c-kit+ cells: 291 +/- 56
  CD26, positive c-kit+ cells: 1,6 +/- 0,3%
  CD29, RMFI of c-kit+ cells: 1587 +/- 267
  CD29, positive c-kit+ cells: 38,0 +/- 6,2%
  CD49e, RMFI of c-kit+ cells: 772 +/- 39
  CD49e, positive c-kit+ cells: 55,2 +/- 3,5%
  CD49f, RMFI of c-kit+ cells: 642 +/- 104
  CD49f, positive c-kit+ cells: 24,2 +/- 4,7%
  CD49d, RMFI of c-kit+ cells: 1179 +/- 58
  CD49d, positive c-kit+ cells: 72,6 +/- 3,6%
  VCAM1, RMFI of c-kit+ cells: 384 +/- 73
  VCAM1, positive c-kit+ cells: 0,7 +/- 0,1%
